Data taken from publication PMC7987009 (bioRxiv, 2021).

B1: Nb36 (VHH)
VHH: VQLVESGGGLVQAGGSLTLTCAASGRTFSSETMDMGWFRQAPGKEREFVAADSWNDGSTYYADSVKGRFTISRDSAKNTLYLQMNSLKPEDTAVYYCAAETYSIYEKDDSWGYWGQGTQVTVS
B2: Nb21 (VHH)
VHH: QVQLVESGGGLVQAGGSLRLSCAVSGLGAHRVGWFRRAPGKEREFVAAIGANGGNTNYLDSVKGRFTISRDNAKNTIYLQMNSLKPQDTAVYYCAARDIETAEYTYWGQGTQVTVSS
B3: Nb17 (VHH)
VHH: HVQLVESGGGLVQAGGSLRLSCAASGSIFSSNAMSWYRQAPGKQRELVASITSGGNADYADSVKGRFTISRDKNTVYPEMSSLKPADTAVYYCHAVGQEASAYAPRAYWGQGTQVTVSS

Molecular target: SARS-CoV-2 spike receptor-binding domain (RBD), wild type (SARS-CoV-2, Wuhan-Hu-1 (wild type), UniProt P0DTC2)
Assay: cryo-EM structure

**Q.** Does B1 bind?
**A.** Result: binds

**Q.** Does B2 bind?
**A.** Result: binds

**Q.** Does B3 bind?
**A.** Result: binds
